The values below come from US6255062A, “β-type DNA polymerases” (priority 1994, dated 2001).

For data set [1], the target named is T1, yeast β-type DNA polymerase (Saccharomyces cerevisiae, UniProt P25615).
T1 construct: made in house; host or cells: Saccharomyces cerevisiae BJ5459 carrying pGAL18HAβ, galactose induced; 12CA5 immunoprecipitate on protein A beads
Nature of the data set: Inhibitor sensitivity of DNA polymerase activity in 12CA5 immunoprecipitates. The data set is classed as biochemical. As to conditions: for Polβ Activity (1): experiment 1; for Polβ Activity (2): experiment 2.

The subject of data set [2] is DNA polymerases α, δ and ε. As to conditions: cited from earlier work.
Data set [3] concerns activated DNA or poly dA-oligo dT primer-template. Nature of the data set: DNA polymerase activity in 12CA5 immunoprecipitates. As to conditions: for Polβ Activity (1): experiment 1; for Polβ Activity (2): experiment 2. The data set is classed as biochemical.
Data set [4] relates to poly dT labeled at the 3'-end with terminal transferase. Nature of the data set: 3' exonuclease activity. In kind it is biochemical. The conditions noted are these: data not shown.
In data set [5] the test system is dA-dT and rA-dT primer-templates. Briefly: rNTP incorporation and reverse transcriptase activities of immunoprecipitated polymerase. The data set is classed as biochemical.
Setting [6] is: primer-template DNA, Aphidicolin (30 μg/ml), compare dCTP (10 mM) control.
Where [7] appears, read: dA-dT (20:1), dTTP (10 mM)/ddTTP (10 mM).

Turning to `C[C@@]1(CO)[C@H](O)CC[C@@]2(C)[C@H]1CC[C@H]1C[C@@H]3C[C@@]12CC[C@]3(O)CO` [Aphidicolin, aphidicolin], the “sensitivity of yeast β-type DNA polymerase to aphidicolin” value in data set [1] (30 μg/ml) is recorded as “resistant”. In addition, in data set [1] (setting [6]), the “Polβ Activity (1)” value was found to be 162 and the “Polβ Activity (2)” value amounted to 78. Further, in data set [2] (aphidicolin 30 μg/ml), the “inhibition of DNA polymerases α, δ and ε” value is “completely inhibits”.
With `CCN1C(=O)C=CC1=O` [NEM, N-ethylmaleimide], the “sensitivity of yeast β-type DNA polymerase to N-ethylmaleimide” value in data set [1] (10 mM) is reported as “sensitive”. Also, the “Polβ Activity (1)” value in data set [1] (primer-template DNA, NEM (10 mM)) was 8.
`Cc1cn([C@H]2CC[C@@H](COP(=O)(O)OP(=O)(O)OP(=O)(O)O)O2)c(=O)[nH]c1=O` [ddTTP, dideoxythymidine triphosphate]: in data set [1] (setting [7]), the “Polβ Activity (1)” value is listed as 11 and the “Polβ Activity (2)” value is reported as 6. For the same molecule, in data set [1] (levels used in Table 2), the “effect of ddTTP on yeast β-type DNA polymerase” value is recorded as “inhibited”. For the same molecule, in data set [2] (ddTTP at the levels used here), the “inhibition of DNA polymerase α, δ and ε” value is given as “does not inhibit”.

B1: HA polβ: β-type DNA polymerase from S. cerevisiae (POL4, SEQ ID NO:2) tagged at NH2 terminus with influenza hemagglutinin epitope (protein)
chain: MSLKGKFFAFLPNPNTSSNKFFKSILEKKGATIVSSIQNCLQSSRKEVIILIEDSFVDSDMHLTQKDIFQREAGLNDVDEFLGKIEQSGIQCVKTSCITKWVQNDKFAFQKDDLIKFQPSIIVISDNADDGQSSTDKESEISTDVESERNDDSNNKDMIQASKPLKRLLQEDKGRASLVTDKTKYKNNELIIGALKRLTKKYEIEGEKFRARSYRLAKQSMENCDFNVRSGEEAHTKLRNIGPSIAKKIQVILDTGVLPGLNDSVGLEDKLKYFKNCYGIGSEIAKRWNLLNFESFCVAAKKDPEEFVSDWTILFGWSYYDDWLCKMSRNECFTHLKKVQKALRGIDPECQVELQGSYNRGYSKCGDIDLLFFKPFCNDTTELAKIMETLCIKLYKDGYIHCFLQLTPNLEKLFLKRIVERFRTAKIVGYGERKRWYSSEIIKKFFMGVKFSPRELEELKEMKNDEGTLLIEEEEEEETKLNPIDQYMSLNAKDGNYCRRLDFFCCKWDELGAGRIHYTGSKEYNRWIRILAAQKGFKLTQHGLFRNNILLESFNERRIFELLNLKYAEPEHRNIEWEKKTA
modifications: N-terminal HA epitope tag
Take B1: the “DNA polymerase activity relative to controls” value in data set [3] was 10 fold. In addition, the “synthesis on the poly dA template alone (primer requirement)” value in data set [3] is listed as “No synthesis was observed”. Also, the “Polβ Activity (1)” value was 101 in data set [3] ([…], Complete); 212 in data set [3] ([…], dCTP (10 mM)); 105 in data set [3] (dA-dT (10:1), Complete); 293 in data set [3] (dA-dT (20:1), Complete); 95 in data set [3] (dA-dT (20:1), dTTP (10 mM)). In addition, the “Polβ Activity (2)” value came out at 106 in data set [3] ([…], dCTP (10 mM)); 244 in data set [3] (dA-dT (10:1), Complete); 411 in data set [3] (dA-dT (20:1), Complete); 102 in data set [3] (dA-dT (20:1), dTTP (10 mM)). The “3' exonuclease activity” value in data set [4] was “no 3' exonuclease activity”. The processivity result in data set [5] is “processivity is low”. For the same molecule, the Activity in data set [5] (dA-dT, 3H NTP T, Mg, Experiment 1) is 480 pmol; in data set [5] (dA-dT, 3H NTP T, Mn, Experiment 1), 769 pmol; in data set [5] (dA-dT, 3H NTP U, Mg, Experiment 1), 110 pmol; in data set [5] (dA-dT, 3H NTP U, Mg, Experiment 2), 187 pmol; in data set [5] (dA-dT, 3H NTP U, Mn, Experiment 1) it was 202 pmol; in data set [5] (dA-dT, 3H NTP U, Mn, Experiment 2), 209 pmol. The Activity turned out to be 65 pmol in data set [5] (rA-dT, 3H NTP T, Mg, Experiment 1); 81 pmol in data set [5] (rA-dT, 3H NTP T, Mg, Experiment 2); 191 pmol in data set [5] (rA-dT, 3H NTP T, Mn, Experiment 1); 59 pmol in data set [5] (rA-dT, 3H NTP T, Mn, Experiment 2); 32 pmol in data set [5] (rA-dT, 3H NTP U, Mg, Experiment 2); 55 pmol in data set [5] (rA-dT, 3H NTP U, Mn, Experiment 2). Besides, in data set [5] (in the presence of either Mg++ or Mn++), the reverse transcriptase activity entry was “significant reverse transcriptase activity”.
